Data published in patent US9957295B2, “Peptides inhibiting cold-inducible RNA binding protein activity” (The Feinstein Institute for Medical Research, priority 2013, dated 2018).
One block for each molecule: values may come before it.

Experiments:
TLR4/MD2 complex = TLR4/MD2 complex (Homo sapiens, UniProt O00206+Q9Y6Y9); conditions: SPR, literature; read-out: KD, binding to TLR4/MD2 complex; cited from earlier work
TLR4 = TLR4 (Homo sapiens, UniProt O00206); conditions: literature; cited from earlier work
Sequence of TLR4 (O00206 24-631 limits assumed, species assumed): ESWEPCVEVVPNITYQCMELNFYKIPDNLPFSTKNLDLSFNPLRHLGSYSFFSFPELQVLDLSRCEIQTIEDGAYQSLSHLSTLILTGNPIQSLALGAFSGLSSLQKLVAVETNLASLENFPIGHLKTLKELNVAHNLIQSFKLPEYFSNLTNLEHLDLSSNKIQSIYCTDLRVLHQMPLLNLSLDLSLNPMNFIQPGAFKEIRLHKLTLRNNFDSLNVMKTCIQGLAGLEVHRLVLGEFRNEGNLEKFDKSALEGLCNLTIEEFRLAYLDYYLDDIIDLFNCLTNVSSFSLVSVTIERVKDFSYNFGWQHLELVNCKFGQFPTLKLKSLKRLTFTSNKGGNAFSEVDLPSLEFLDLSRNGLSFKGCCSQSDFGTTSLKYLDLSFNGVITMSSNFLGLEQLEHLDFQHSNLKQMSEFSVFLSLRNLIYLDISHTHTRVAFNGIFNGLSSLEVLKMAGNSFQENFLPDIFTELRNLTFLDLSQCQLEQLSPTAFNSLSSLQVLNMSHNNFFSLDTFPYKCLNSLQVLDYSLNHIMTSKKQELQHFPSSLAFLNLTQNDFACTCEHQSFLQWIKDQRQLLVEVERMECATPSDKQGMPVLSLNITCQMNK

MD2 = target: T1, MD2 (Homo sapiens, UniProt Q9Y6Y9); conditions: literature; read-out: KD, binding to MD2; cited from earlier work
T1 sequence (Q9Y6Y9 19-160): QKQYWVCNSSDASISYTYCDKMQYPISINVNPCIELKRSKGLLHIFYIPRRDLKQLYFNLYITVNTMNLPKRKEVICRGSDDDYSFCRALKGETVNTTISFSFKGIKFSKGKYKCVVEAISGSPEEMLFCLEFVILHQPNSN

THP-1 cells = test: TNF-α release from differentiated THP-1 cells stimulated with recombinant proteins; format: cell-based, human; conditions: 4 h
Description: As with the murine model, the stimulation of TNF-α, release by rCIRP in a human model was studied. […] These experiments were conducted by incubating differentiated human THP-1 cells with rhCIRP or rmCIRP at the indicated concentrations for 4 h. *P<0.05 vs. no CIRP. Similarly, human PBMC were incubated with the indicated concentrations of rhCIRP for 8 h. *P<0.05 vs. no rhCIRP. Thus, stimulation of cytokine release by CIRP was not attributable to LPS contamination. Furthermore, CIRP-induced cytokine activation was conserved between rodents and humans.
rmCIRP induced TNF-α and HMGB1 release in macrophages (FIGS. 10a, b and c). It was reported that HMGB1 can also stimulate TNF-α release (Andersson, U., et al. High mobility group 1 protein (HMG-1) stimulates proinflammatory cytokine synthesis in human monocytes. J. Exp. Med. 192, 565-570 (2000)). The relationship between CIRP and HMGB1 on stimulating TNF-α release was analyzed by applying respective neutralizing antibodies. […] After 4 h, TNF-α levels in conditioned medium (CM) were assayed by ELISA. Data are mean±s.e.m. from three independent experiments. *P<0.05 vs. rmCIRP+ control IgG. In FIG. 16D, RAW 264.7 cells were pre-incubated with rabbit control IgG or anti-CIRP antibodies at indicated dilutions of 1 mg/ml for 20 min before adding 1.0 μg/ml rmCIRP. After 4 h, TNF-α levels in CM were assayed by ELISA. Data are mean±s.e.m. from three independent experiments. *P<0.05 vs. rmCIRP+ control IgG. THP-1 cells were incubated with 4 μg/ml of anti-CIRP antibodies, anti-HMGB1 antibodies, or non-immunized control IgG for 1 h prior to adding rmCIRP (0.3 μg/ml), rmHMGB1 (0.3 μg/ml), or rmCIRP/rmHMGB1 (0.3 μg/ml, 0.3 μg/ml) for 8 h. *P<0.05 vs. rmCIRP; #P<0.05 vs. rmHMGB1. […] Furthermore, rmCIRP, rmHMGB1, and rmCIRP plus rmHMGB1 induced TNF-α levels of 0.8, 0.6, and 1.6 ng/ml, respectively. […] TNF-α levels in all collected CM were assayed by ELISA. Data are mean±s.e.m. from three or four independent experiments.
Murine macrophage-like RAW 264.7 cells and human monocyte THP-1 cells were obtained from ATCC (Manassas, Va.). […]

RAGE = target: T2, RAGE (Homo sapiens, UniProt Q15109); test: SPR binding to RAGE
T2 construct: Ala23-Ala344); 6-His (C); purchased Biovision; host or cells: human HEK293 cells
T2 sequence (Q15109 23-344): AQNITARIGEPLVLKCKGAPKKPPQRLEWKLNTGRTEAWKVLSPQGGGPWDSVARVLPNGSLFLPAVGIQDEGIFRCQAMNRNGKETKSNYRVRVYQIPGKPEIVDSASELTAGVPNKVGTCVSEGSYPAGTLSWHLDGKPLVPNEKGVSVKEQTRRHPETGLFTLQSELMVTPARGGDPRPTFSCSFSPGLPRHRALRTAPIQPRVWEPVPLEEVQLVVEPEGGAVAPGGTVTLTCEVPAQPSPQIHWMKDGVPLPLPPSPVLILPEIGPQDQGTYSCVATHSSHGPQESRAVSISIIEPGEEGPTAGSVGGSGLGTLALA
Description: (§1) Analysis of protein-protein and peptide-protein interactions were conducted using the BIAcore T200 instrument (GE Healthcare). Binding reactions were performed in 1×PBS buffer containing 0.01% Tween-20 (pH 7.4). The CM5 dextran chip (flow cell-2) was first activated by injection with 89 μl of 0.1 M […] and 0.1 M N-hydroxysuccinimide. An aliquot of 200 μl of 5 μg/ml of the ligand diluted in 10 mM sodium acetate (pH 4.5) was injected into flow cell-2 of the CM5 chip for immobilization. Next, 135 μl of 1 M ethanolamine (pH 8.2) was then injected to block the remaining active sites. The flow cell-1 without coating with the ligand was used as a control to evaluate nonspecific binding. […] To evaluate the binding, the analyte (ranging from 62.5 nM to 1.0 μM for kinetics analysis or 0.5 μM for yes/no binding analysis) was injected into flow cell-1 and -2 and the association of analyte and ligand was recorded respectively by surface plasmon resonance. […] Data were analyzed by the BIAcore T200 Evaluation Software. […]
(§2) Surface plasmon resonance (SPR) analysis was utilized to determine the physical interaction and binding affinity between rhCIRP and pattern-recognition receptors and MD2. […] The region of CIRP that binds to MD2 was determined via the synthesis of 32 oligopeptides (15-mer) covering the entire human CIRP sequence. […]

TLR2 = target: T3, TLR2 (Homo sapiens, UniProt O60603); test: SPR binding to TLR2
T3 construct: Glu21-Leu590); 10-His (C); purchased R&D Systems; host or cells: mouse myeloma NS0 cell line
T3 sequence (O60603 21-590): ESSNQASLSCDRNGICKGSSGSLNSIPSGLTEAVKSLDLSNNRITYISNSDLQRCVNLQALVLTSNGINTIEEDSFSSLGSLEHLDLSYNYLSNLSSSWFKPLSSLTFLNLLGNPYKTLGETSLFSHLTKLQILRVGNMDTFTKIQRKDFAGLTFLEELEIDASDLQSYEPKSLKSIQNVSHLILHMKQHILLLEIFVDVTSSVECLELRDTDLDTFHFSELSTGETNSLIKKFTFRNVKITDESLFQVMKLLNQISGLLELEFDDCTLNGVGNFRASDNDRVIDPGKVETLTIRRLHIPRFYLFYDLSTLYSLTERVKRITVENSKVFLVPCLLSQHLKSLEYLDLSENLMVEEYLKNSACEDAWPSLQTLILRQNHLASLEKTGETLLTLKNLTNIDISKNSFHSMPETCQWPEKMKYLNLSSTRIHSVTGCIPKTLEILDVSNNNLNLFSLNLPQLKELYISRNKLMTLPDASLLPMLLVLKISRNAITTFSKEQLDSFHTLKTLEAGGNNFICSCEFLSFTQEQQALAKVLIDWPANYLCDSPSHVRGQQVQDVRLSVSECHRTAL
Description: as §1, §2

rhMD2 = target: T4, rhMD2 (Homo sapiens, UniProt Q9Y6Y9); test: SPR binding to immobilized rhMD2; conditions: kinetic analysis, 25° C., read-out: apparent KD, binding to rhMD2
T4 construct: Glu17-Asn160); 10-His (C); purchased R&D Systems; host or cells: E. coli
T4 sequence (Q9Y6Y9 17-160): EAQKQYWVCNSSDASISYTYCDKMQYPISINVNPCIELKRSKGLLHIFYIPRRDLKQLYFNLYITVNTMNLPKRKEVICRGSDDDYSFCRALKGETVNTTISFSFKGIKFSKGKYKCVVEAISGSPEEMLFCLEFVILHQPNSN
Description: Analysis of protein-protein and peptide-protein interactions were conducted using the BIAcore T200 instrument (GE Healthcare). Binding reactions were performed in 1×PBS buffer containing 0.01% Tween-20 (pH 7.4). The CM5 dextran chip (flow cell-2) was first activated by injection with 89 μl of 0.1 M […] and 0.1 M N-hydroxysuccinimide. An aliquot of 200 μl of 5 μg/ml of the ligand diluted in 10 mM sodium acetate (pH 4.5) was injected into flow cell-2 of the CM5 chip for immobilization. Next, 135 μl of 1 M ethanolamine (pH 8.2) was then injected to block the remaining active sites. The flow cell-1 without coating with the ligand was used as a control to evaluate nonspecific binding. The binding analyses were performed at flow rate of 30 μl/min at 25° C. To evaluate the binding, the analyte (ranging from 62.5 nM to 1.0 μM for kinetics analysis or 0.5 μM for yes/no binding analysis) was injected into flow cell-1 and -2 and the association of analyte and ligand was recorded respectively by surface plasmon resonance. The signal from the blank channel (flow cell-1) was subtracted from the channel (flow-cell 2) coated with the ligand. Data were analyzed by the BIAcore T200 Evaluation Software. For all samples, a blank injection with buffer alone was subtracted from the resulting reaction surface data. Data were globally fitted to the Lagmuir model for a 1:1 binding.
Surface plasmon resonance (SPR) analysis was utilized to determine the physical interaction and binding affinity between rhCIRP and pattern-recognition receptors and MD2. […] The sensorgrams show association and dissociation of analyte at the indicated concentration passed over to the immobilized ligand on the sensor chip, indicated as analyte/ligand on top of each diagram. […] The region of CIRP that binds to MD2 was determined via the synthesis of 32 oligopeptides (15-mer) covering the entire human CIRP sequence. The oligopeptides were passed over immobilized rhMD2 on the BIAcore instrument, followed by subsequent performance of a series of SPR analyses. Three oligopeptides with high binding affinity were indicated. […] Three oligopeptides, aa 101-115, 106-120 (C22), and 111-125 (C23) bound to rhMD2 with high affinity (FIG. 14 and FIG. 19).

Sequence of TLR4/MD2 complex (O00206 24-631 limits assumed, one chain of several): as the sequence (O00206 24-631 limits assumed, species assumed) above

Molecule: HMGB1: high mobility group box 1 protein, proinflammatory cytokine; literature binding data
Kd (TLR4/MD2 complex): 1500 nM
binding to TLR4 (in words) (TLR4): did not bind to TLR4
Kd (MD2): 8 nM

KD with RAGE (RAGE): in the nM range
KD with TLR2 (TLR2): in the nM range
Kd (rhMD2): 302 nM
B1: rhCIRP: recombinant human CIRP, full length, C-terminal DDK tag, from HEK293 cells (Origene) (protein)
chain: MASDEGKLFVGGLSFDTNEQSLEQVFSKYGQISEVVVVKDRETQRSRGFGFVTFENIDDAKDAMMAMNGKSVDGRQIRVDQAGKSSDNRSRGYRGGSAGGRGFFRGGRGRGRGFSRGGGDRGYGGNRFESRSGGYGGSRDYYSSRSQSGGYSDRSSGGSYRDSYDSYATHNE
modifications: left off: small tags and cut ends
activity in stimulating TNF-α release from differentiated THP-1 cells (THP-1 cells): comparable activity to rmCIRP
